Assay results published in patent publication US12134663B2, “Cationic peptides for activating Lck” (Interk Peptide Therapeutics Limited, priority 2018, dated 2024).
“Also recorded” adds a separate entry of the source. Where a SMILES comes first, the peptide text is derived from it. Where no end group is shown, it is not given here. [ ]: non-standard residue; d: D form. ξ: configuration not given here. ξGly(decyl) = CCCCCCCCCCC(N)C(=O)O; 2Adod = 2-amino-dodecanoic acid

Legend:
[1] = tested on: K562 cells; test: Specific cytotoxicity of Calcein-AM stained K562 cells in PBMC co-culture; assay type: cell-based; conditions: PBMC pre-treated 0.08-1.25 μM 48 hrs, 5:1 ratio, 4 hrs; greater than IFN-α 2A; data not shown
Experimental: In brief, PBMC were incubated for 48 hrs then co-cultured together with Calcein AM stained K562 cells stimulated with or without human recombinant IFN-α 2A (5 ng/mL) for 4 hrs. Supernatants were assessed for Calcein green fluorescence intensity using the GloMax® Discover and percentage specific cytotoxicity was calculated. Data shown indicates mean percentage specific cytotoxicity +/− SEM, n=4. Data were analysed by paired t test in comparison to the vehicle control, *p<0.05.
PBMC were also pre-treated with or without the Lck activating polypeptides RSKAKNPLY-RRRRRRRRR (SEQ ID NO: 24, IK14800), RVKVKVVVV-RRRRRRRRR (SEQ ID NO: 58, IK15800), RSKAKNPLY-RRRRRRRRR-(2Adod)4-NH2 (SEQ ID NO: 65, IK14804) and RVKVKVVVV-RRRRRRRRR-(2Adod)4-NH2 (SEQ ID NO: 66, IK15804) (0.08-1.25 μM) for 48 hrs, then co-cultured with Calcein AM stained K562 cells at a 5:1 ratio and incubated for a further 4 hrs. Supernatants were assessed for Calcein green fluorescence intensity using the GloMax® Discover and percentage specific cytotoxicity was calculated. Data shown indicates mean percentage specific cytotoxicity +/− SEM, n=4. Data were analysed by repeated measures two-way ANOVA with Holm-Sidak's post-test comparing peptide treatment with vehicle control, *p<0.05, **P<0.01, ***P<0.001, ****p<0.0001.

[2] = target: T1, Lck (Homo sapiens, UniProt P06239); test: In vitro Lck activation kinase study (Eurofins); assay type: biochemical; conditions: for Lck activation (in words): peptide 1 μM where stated
T1 construct: purchased Eurofins Pharma Discovery Services UK Limited
Experimental: The ability of polypeptides of the present invention to activate Lck was examined in vitro. Lck is member of the Src family of tyrosine kinases. […] All results in are percentage Lck activity relative to control (100%).
Test polypeptides were assessed at a concentration of 1.0 μM.
The ability of polypeptides of the present invention to activate Src family kinases was examined in vitro. Kinase activation studies utilising peptides were carried out as described in Example 1, and all kinase activity values are shown as percentage relative to control.
The ability of polypeptides comprising both lysine and arginine to activate Lck in vitro was examined. Lck activation studies utilising peptides were carried out as described in Example 1, and all kinase activity values are shown as percentage relative to control.

[3] = target: T1, Lck; test: Lck Activity above control (1 µM) | Lck
Experimental: (§1) Table printed on a drawing sheet, FIG. 2
Head of the field: Lck Activity above control (1 µM) | Lck
(§2) First copying reader's note: Kinase activity above control for each Src family kinase at 1 µM peptide; the cell for IK00800/Fgr is printed as '%' without a digit.
Where the first naming reader finds the target: head: Lck Activity above control (1 µM) | Lck

[4] = tested on: Fgr; test: Lck Activity above control (1 µM) | Fgr
Experimental: as §1
Head of the field: Lck Activity above control (1 µM) | Fgr
as §2
Where the first naming reader finds the target: head: Lck Activity above control (1 µM) | Fgr

[5] = tested on: wild-type Jurkat cells; test: IL-2 secretion in stimulated wild-type Jurkat cells (ELISA); assay type: cell-based, human; conditions: biotinylated anti-CD3, anti-CD28, avidin; 48 h exposure
Experimental: In brief, wild-type Jurkat cells (an immortalised line of human T lymphocyte cells) were stimulated by exposure to biotinylated anti-CD3 antibody in the presence of anti-CD28 antibody and avidin. During the culture period (48 hours or 72 hours) cells were exposed to test polypeptides. Cell supernatant was assayed for IL-2 at the end of 48 or 72 hours using a standard commercially available ELISA kit as described above.
In brief, cells were seeded at 1 million cells per well (12 well plate, 2 mL volume) and stimulated with Biotin-CD3, CD28, and avidin (5:5:1.25 μg). The cells were then treated with IK14804, and then incubated for 48 hours at 37° C. The supernatant (100 uL, n=3), was then analyzed for IL-2 content.
In brief, wild-type Jurkat cells (am immortalised line of human T lymphocyte cells) were stimulated by exposure to biotinylated anti-CD3 antibody in the presence of anti-CD28 antibody and avidin. Cells were seeded at 1 million cells per well (12 well plate, 2 mL volume) and stimulated with Biotin-anti-CD3, anti-CD28, and avidin (5:5:1.25 μg). Cells were treated with the test peptides and then incubated for 48 hours at 37° C. The supernatants (100 ul, n=3), were then analysed for IL-2 and IL-12 content. During the culture period (48 hours) cells were exposed to test polypeptide RSKAKNPLYR-(2Adod)4-NH2 (SEQ ID NO: 128). Cell supernatant was assayed for IL-2 and IL-12 at the end of 48 hours using standard commercially available ELISA kit as described above.

[6] = target: T2, Lck(h) (Homo sapiens, UniProt P06239); test: Western blot of Lck phosphorylation (4G10 and anti-pY394 antibodies); assay type: biochemical; conditions: peptide 1 and 10 μM, with ATP, 40 minutes
T2 construct: purchased Eurofins Pharma Discovery Services UK Limited
Experimental: Western blot studies were performed by Eurofins Pharma Discovery Services UK Limited (Dundee, United Kingdom). […] Reactions were allowed to proceed for 40 minutes at room temperature before being stopped by the addition of SDS-sample buffer. In each case the Lck enzyme was diluted to yield 20 ng per 25 μl reaction. Appropriate controls in the absence of compound and peptide were also run as well as an untreated sample of both the Lck(h) and Lck(h) activated kinases. The resulting samples were then subjected to SDS-PAGE and western blot analysis using the antibodies 4G10 (anti-phospho-tyrosine antibody) (see FIG. 3) and anti-pY394 Lck (R&D Systems MAB7500) (see FIG. 2). An additional blot using the secondary detection antibody (anti-mouse-HRP) was also performed. The membranes were stained by Ponceau S to verify sample loading and effective protein transfer. The 4G10 antibody is a general anti-phospho-tyrosine antibody and there are several tyrosine residues in Lck but only one auto-phosphorylating tyrosine residue, i.e., at position Y394. […] Samples were as follows (numbers correspond to the lanes on the gel): • 1. Molecular weight markers • 2. Standard Lck • 3. Standard Lck+peptide substrate+ATP (no test peptide) • 4. Standard Lck−peptide substrate+ATP (no test peptide) • 5. Standard Lck+ATP+10Arg peptide (SEQ ID NO: 7, IK00100; 1 μM) (no peptide substrate) • 6. Standard Lck+ATP+10 Arg peptide (SEQ ID NO: 7, IK00100; 10 μM) (no peptide substrate) • 7. Standard Lck+ATP+8 Arg peptide (SEQ ID NO: 4, IK00800; 1 μM) (no peptide substrate) • 8. Standard Lck+ATP+8 Arg peptide (SEQ ID NO: 41K00800; 10 μM) (no peptide substrate) • 9. 10 Arg (SEQ ID NO: 7, IK00100) (10 μM) (test peptide only) • 10. 8 Arg (SEQ ID NO: 4, IK00800) (10 μM) (test peptide only)
The steps of the western blot protocol were as below: • SDS-PAGE gel: 50 minutes at 200V • Western blot transfer: 90 minutes at 25V • Membrane: Nitrocellulose Pre-Cut Blotting Membranes 0.2 μm pore size (LC2000 (Life Tech)) • Ponceau stain: 0.1% Ponceau S (w/v) in 5% acetic acid • The membrane was blocked with 10 mL PBST and 10% BSA for 1 hour before application of primary and secondary antibodies. Primary Antibodies: • 1. Anti-4G10 (Millipore 05-777) 1/1000 in PBST with overnight incubation at 4° C. followed by washing with 4×20 mL PBST. • 2. Anti-pY394 Lck (R&D Systems) 1/2500 in PBST with overnight incubation at 4° C. followed by washing with 4×20 mL PBST. Secondary Antibody:
Anti-mouse-hrp (Sigma A5278) 1/5000 in PBST followed by washing with 4×20 mL PBST for 5 hours on a spiral shaker at room temperature. Detection was performed via SuperSignal ELISA Pico Chemiluminescent Substrate—37070 (Pierce).

T1 sequence (P06239 whole entry): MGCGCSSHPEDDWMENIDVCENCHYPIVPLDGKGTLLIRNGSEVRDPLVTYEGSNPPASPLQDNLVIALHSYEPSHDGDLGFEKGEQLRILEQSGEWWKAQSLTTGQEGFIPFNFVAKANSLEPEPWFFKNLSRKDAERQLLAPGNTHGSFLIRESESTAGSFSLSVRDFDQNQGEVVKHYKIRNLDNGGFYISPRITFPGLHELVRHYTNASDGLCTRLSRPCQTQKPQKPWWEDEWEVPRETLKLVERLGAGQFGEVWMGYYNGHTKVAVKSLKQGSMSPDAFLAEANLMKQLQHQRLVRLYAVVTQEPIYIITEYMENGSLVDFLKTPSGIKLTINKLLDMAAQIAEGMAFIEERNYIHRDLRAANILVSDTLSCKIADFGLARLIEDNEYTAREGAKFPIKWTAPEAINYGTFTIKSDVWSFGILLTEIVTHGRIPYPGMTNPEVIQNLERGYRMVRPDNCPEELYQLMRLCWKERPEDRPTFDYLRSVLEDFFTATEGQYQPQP
T2 sequence (P06239 whole entry): as above

CCCCCCCCCCC(NC(=O)C(CCCCCCCCCC)NC(=O)C(CCCCCCCCCC)NC(=O)C(CCCCCCCCCC)NC(=O)[C@H](CCCNC(=N)N)NC(=O)[C@H](CCCNC(=N)N)NC(=O)[C@H](CCCNC(=N)N)NC(=O)[C@H](CCCNC(=N)N)NC(=O)[C@H](CCCNC(=N)N)NC(=O)[C@H](CCCNC(=N)N)NC(=O)[C@H](CCCNC(=N)N)NC(=O)[C@H](CCCNC(=N)N)NC(=O)[C@H](CCCNC(=N)N)NC(=O)[C@@H](NC(=O)[C@@H](NC(=O)[C@@H](NC(=O)[C@@H](NC(=O)[C@H](CCCCN)NC(=O)[C@@H](NC(=O)[C@H](CCCCN)NC(=O)[C@@H](NC(=O)[C@@H](N)CCCNC(=N)N)C(C)C)C(C)C)C(C)C)C(C)C)C(C)C)C(C)C)C(N)=O (some centres unmarked) [IK15804, RVKVKVVVVR-RRRRRRRR-(2Adod)4-NH2] (H-RVKVKVVVVRRRRRRRRR[ξGly(decyl)][ξGly(decyl)][ξGly(decyl)][ξGly(decyl)]-NH2)
percentage of specific cytotoxicity [1]: increased the percentage of specific cytotoxicity

RSKAKNPLYRRRRRRRRR-NH2 [IK14800, RSKAKNPLY-RRRRRRRRR-NH2]
Lck activation ([2]; peptide 1 μM, relative to control): 496%
percentage of specific cytotoxicity [1]: increased the percentage of specific cytotoxicity

RRRRRRRRRR [IK00100] [listing 1 of 2 here]
Lck Activity above control (1 µM) | Lck [3]: 389%
Lck Activity above control (1 µM) | Fgr [4]: 0%

RSKAKNPLYR (RSKAKNPLYR-{2Adod-2Adod-2Adod-2Adod-NH2}) [IK14000]
Lck activation (in words) [2]: do not activate Lck
Lck activation (in words) ([2]; listed as RSKAKNPLYR): no Lck activation
IL-2 secretion relative to control [5]: increase IL-2 secretion

RVKVKVVVVRRRRRRRRR-NH2 [IK15800, RVKVKVVVV-RRRRRRRRR]
percentage of specific cytotoxicity [1]: increased the percentage of specific cytotoxicity

RRRRRRRR [IK00800] [listing 1 of 2 here]
phosphorylation at Y394 of Lck (anti-pY394 antibody) ([6]; listed as 8 Arg): significant increase in the level of phosphorylation
level of phosphorylation on Lck (anti-phospho tyrosine 4G10 antibody) ([6]; listed as 8Arg): significant increase in the level of phosphorylation; also recorded: increased with increasing concentrations
phosphorylation at Y394 of Lck (anti-pY394 antibody) ([6]; listed as 8Arg): Increased auto-phosphorylation was associated with increasing concentration

RRRRRRRR [IK00800] [listing 2 of 2 here]
Lck Activity above control (1 µM) | Lck [3]: 126%

RSKAKNPLY [IK94000]
Lck activation (in words) [2]: no Lck activation
Lck activation (in words) ([2]; listed as IK09400): do not activate Lck
IL-2 secretion relative to control [5]: increase IL-2 secretion

RSKAKNPLY-RRRRRRRRR-NH2 (RSKAKNPLYRRRRRRRRR-NH2) [IK14800]
Lck Activity above control (1 µM) | Lck [3]: 578%
Lck Activity above control (1 µM) | Fgr [4]: 0%

CCCCCCCCCCC(NC(=O)C(CCCCCCCCCC)NC(=O)C(CCCCCCCCCC)NC(=O)C(CCCCCCCCCC)NC(=O)[C@H](CCCNC(=N)N)NC(=O)[C@H](CCCNC(=N)N)NC(=O)[C@H](CCCNC(=N)N)NC(=O)[C@H](CCCNC(=N)N)NC(=O)[C@H](CCCNC(=N)N)NC(=O)[C@H](CCCNC(=N)N)NC(=O)[C@H](CCCNC(=N)N)NC(=O)[C@H](CCCNC(=N)N)NC(=O)[C@H](CCCNC(=N)N)NC(=O)[C@H](Cc1ccc(O)cc1)NC(=O)[C@H](CC(C)C)NC(=O)[C@@H]1CCCN1C(=O)[C@H](CC(N)=O)NC(=O)[C@H](CCCCN)NC(=O)[C@H](C)NC(=O)[C@H](CCCCN)NC(=O)[C@H](CO)NC(=O)[C@@H](N)CCCNC(=N)N)C(N)=O (some centres unmarked) [IK14804, RSKAKNPLYR-RRRRRRRR-(2Adod)4-NH2] (H-RSKAKNPLYRRRRRRRRR[ξGly(decyl)][ξGly(decyl)][ξGly(decyl)][ξGly(decyl)]-NH2)
percentage of specific cytotoxicity [1]: increased the percentage of specific cytotoxicity

HHHHHHHHHH [10His]
Lck Activity above control (1 µM) | Lck [3]: 0%
Lck Activity above control (1 µM) | Fgr [4]: 0%

RRRRRRRRRR [IK00100] [listing 2 of 2 here]
phosphorylation at Y394 of Lck (anti-pY394 antibody) ([6]; listed as 10 Arg): significant increase in the level of phosphorylation
level of phosphorylation on Lck (anti-phospho tyrosine 4G10 antibody) ([6]; listed as 10Arg): significant increase in the level of phosphorylation; also recorded: increased with increasing concentrations
phosphorylation at Y394 of Lck (anti-pY394 antibody) ([6]; listed as 10Arg): Increased auto-phosphorylation was associated with increasing concentration

RVKVKVVVV-RRRRRRRRR (RVKVKVVVVRRRRRRRRR) [IK15800]
Lck Activity above control (1 µM) | Lck [3]: 593%
Lck Activity above control (1 µM) | Fgr [4]: 0%
